One data set addresses T1, DPP-IV (Sus scrofa, UniProt P22411).
T1 construct: purchased Sigma D-7052
As to the kind of experiment: In vitro measurement of DPP-IV activity (Gly-Pro-p-nitroanilide substrate, absorption at 385 nm). The data set is classed as biochemical. As to conditions: Tris buffer pH 8.0. As for the experimental part: DPP-IV activity can be determined by measuring the increase in absorption at 385 nm using Gly-Pro-p-nitroanilide (Sigma G-0513) as DPP-IV substrate. A decrease in DPP-IV activity is a measure for the inhibition.
13.152 mg Gly-Pro-p-nitroanilide (substrate; Sigma G-0513) was dissolved in 1 ml Tris buffer, pH 8.0. DPP-IV (Sigma D-7052) was diluted with Tris buffer, pH 8.0 to 1.1 Unit/ml. The substrate was diluted 50-fold with Tris buffer, pH 8.0. The samples were prepared by diluting a protein hydrolysate to a 1 wt. % protein solution in Tris buffer, pH 8.0. The samples were then serially diluted to obtain a range of sample concentrations. 50 μl of the different serially diluted samples and 50 μl of the diluted substrate were then pipetted in wells of a microtiter plate with 96 wells. Subsequently, 100 μl of the diluted enzyme was pipetted in each well of a plate with 96 wells. Then the increase in absorption at 385 nm was determined and DPP-IV activities at different concentrations of a variety of protein hydrolysates were determined, from which the IC50 (i.e. the concentration of inhibitor (particular protein hydrolysate) that inhibits 50% of the DPP-IV activity) could be derived. […] The degree of hydrolysis was determined using the o-phtaldialdehyde method, which is well known in the art.

The conditions of data set [1]: plasma; degradation by DPP-IV; cited from earlier work.
Data set [2] has as its system Bipro from Davisco Foods, USA (unhydrolysed, DH 0%).
Data set [3] concerns Sodium caseinate from DMV International, NL (unhydrolysed, DH 0%).

T1 sequence (P22411 whole entry): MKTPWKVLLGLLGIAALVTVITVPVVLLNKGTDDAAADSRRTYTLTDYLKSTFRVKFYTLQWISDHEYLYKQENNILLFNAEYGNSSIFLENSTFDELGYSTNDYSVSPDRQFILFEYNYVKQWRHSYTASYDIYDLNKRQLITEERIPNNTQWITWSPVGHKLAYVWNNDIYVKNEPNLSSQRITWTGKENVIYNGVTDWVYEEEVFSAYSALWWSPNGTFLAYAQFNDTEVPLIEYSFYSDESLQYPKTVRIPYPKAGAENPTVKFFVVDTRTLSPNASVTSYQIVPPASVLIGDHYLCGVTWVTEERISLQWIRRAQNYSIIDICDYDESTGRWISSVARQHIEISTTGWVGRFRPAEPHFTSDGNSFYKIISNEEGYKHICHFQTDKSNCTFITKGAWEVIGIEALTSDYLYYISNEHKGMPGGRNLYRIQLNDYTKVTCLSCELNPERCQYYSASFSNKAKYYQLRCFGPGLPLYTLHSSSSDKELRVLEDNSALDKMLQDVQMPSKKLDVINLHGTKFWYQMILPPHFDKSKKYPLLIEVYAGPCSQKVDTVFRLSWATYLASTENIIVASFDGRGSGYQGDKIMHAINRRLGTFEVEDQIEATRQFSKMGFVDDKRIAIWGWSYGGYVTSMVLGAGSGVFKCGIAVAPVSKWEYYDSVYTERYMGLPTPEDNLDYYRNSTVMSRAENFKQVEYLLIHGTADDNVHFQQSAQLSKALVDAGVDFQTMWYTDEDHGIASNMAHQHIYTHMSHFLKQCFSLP

In the case of Sodium caseinate, the “DPP-IV inhibition by unhydrolysed protein (control, DH 0%)” value on DPP-IV was “did not inhibit the enzyme”.

Usually half-life stands for the time needed for the level to fall by half in the phase considered. In the case of “GLP-1: 30 amino acid incretin peptide, sequence HAEGTFTSDVSSYLEGQAAKEFIAWLVKGR (SEQ ID NO: 1)”, the half-life in data set [1] is 1 to 2 min.

In the case of dipeptidyl peptidase IV (DPP-IV), the “DPP-IV activity (Gly-Pro-p-nitroanilide substrate, absorption at 385 nm)” value in data set [2] and in data set [3] was “unhydrolysed protein did not inhibit the enzyme” in each case.

The values above are taken from patent publication US8431531B2, “Methods for stimulating glucagon-like peptide-1(GLP-1) secretion and treatments comprising same” (Campina Nederland Holding B.V., priority 2005, dated 2013).
